Measured values reported in PMC7124660.

How the values were obtained:
[1] = biological target: hemagglutinin of avian influenza virus H1N1 (avian influenza virus H1N1); experiment: ELISA
[2] = biological target: hemagglutinin of avian influenza virus H5N1 (avian influenza virus H5N1); experiment: ELISA
Chain of hemagglutinin of avian influenza virus H5N1 (avian influenza virus H5N1) (Q9Q0U6 17-568): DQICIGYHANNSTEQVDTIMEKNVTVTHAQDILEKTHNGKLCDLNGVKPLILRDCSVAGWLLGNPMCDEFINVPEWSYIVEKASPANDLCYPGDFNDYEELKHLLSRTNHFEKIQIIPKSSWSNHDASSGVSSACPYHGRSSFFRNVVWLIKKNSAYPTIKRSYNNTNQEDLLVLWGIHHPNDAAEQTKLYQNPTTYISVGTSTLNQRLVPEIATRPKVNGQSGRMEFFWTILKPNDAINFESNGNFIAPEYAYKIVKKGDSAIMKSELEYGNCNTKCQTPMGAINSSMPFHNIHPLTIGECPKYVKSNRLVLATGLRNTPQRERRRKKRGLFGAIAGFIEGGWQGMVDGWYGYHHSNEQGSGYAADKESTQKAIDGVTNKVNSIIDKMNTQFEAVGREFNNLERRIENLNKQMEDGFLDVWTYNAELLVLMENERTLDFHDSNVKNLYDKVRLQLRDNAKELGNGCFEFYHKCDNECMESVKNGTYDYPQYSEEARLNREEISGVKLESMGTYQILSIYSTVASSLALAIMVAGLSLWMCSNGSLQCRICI

Question: Which results are given for “Desialylated ovomucin (from UniProt Q98UI9;F1NBL0) (complex)”?
Answer: percent decrease of binding capacity against natural OVM [1]: 64.2%; percent decrease of binding capacity against natural OVM [2]: 71.5%
